Among the data in paper PMC12360793 (2025) are Kd and koff values, retold here.

The term Kd denotes a measure of binding affinity in units of concentration. A higher Kd goes with lower affinity. What is called koff is the rate constant with which the complex falls apart. Lower therefore signals a long-lived complex.

Changes are numbered by the printed parent chain. Read-outs that look alike come from different tables or passages of the source.

Holding throughout (assay): BLI
Test [1] concerns the target T1, PnNL2018B S1-hFc (PnNL2018B (bat MERSr-CoV sampled in …)).
Test [2] concerns the target T1, PnNL2018B S1-hFc. The source holds these as a separate data set.
The target of test [3] is T2, biotinylated monomeric MOW15–22 RBD (MOW15–22 (bat MERSr-CoV sampled in …)).
Test [4] concerns the target T2, biotinylated monomeric MOW15–22 RBD. This is another data set of the same source.

B1: soluble dimeric P.nat ACE2 ectodomain (residues 18–739, twin-strep-3×FLAG) (domain or fragment)
chain: QSLTTEEKAREFLDKFNSEAENWSHESALASWDYNTNINDKNAQKMNEADSKWSAFYKEHSKLAQGFPLQEIQNSTIKLQLQILQQNGSSVLTAEKSKRLSTILTTMSTIYSTGKVCNPNNPQQCFTLSGLEDIMEKSKDYHQRLWIWEGWRSEVGKQLRPLYEEYVALKNEMARGNNYKDYGDYWRGDYETEGGDGYNYSRNHLIEDVDRIFLEIKPLYEQLHAYVRAKLMNAYPSRISPTGCLPAHLLGDMWGRFWTNLYNLTVPFEKKQNIDVTDTMKKQSWDAEKIFKEAEKFYLSVGLHNMTPEFWNNSMLTEPSDGRQVVCHPTAWDLGKNDFRIKMCTKVTMDDFLTAHHEMGHIQYDMAYAKQPYLLRNGANEGFHEAVGEVMSLSVATPKHLKGMGLLPSNFSEDCETEINFLLKQALNIVGTLPFTYMLEKWRWMVFEGKIPKEQWMEKWWEMKREIVGVVEPLPHDETYCDPASLFHVANDYSFIRYFTRTILEFQFQEALCQIANHTGPLHKCDISNSTEAGKQLKNMLELGKSKPWTFALEQIARTKEMDAKPLLNYFKPLFSWLKEQNGNSVGWSADWSPYSEQSIKVRISLKSALGEKAYEWNDNEMYLFRSSVAYAMRVYFLKVKNETIPFRAEDVWVSDEKIRVSFKFFVTSPTNVSDIIPRSEVEDAIRMSRGRINDAFRLDDKTLEFLGIQPTLGPPYQPPVT
In the test with PnNL2018B S1-hFc [1], B1 returned a Kd of 0.183 µM and a koff of 0.00727 s⁻¹.

B2: soluble dimeric P.nat.M1 ACE2 ectodomain (twin-strep-3×FLAG) (domain or fragment)
chain: B1 chain with V390I, V395A, G403D, M404L, P408A, S409Q, F411Y, S412P, C415Y
On to B2, for which, in the test with PnNL2018B S1-hFc [2], the dissociation constant (Kd) came to 0.0169 µM and the koff turned out to be 0.00179 s⁻¹.

B3: monomeric P.dav ACE2 ectodomain (residues 17–613, avi-His8) (domain or fragment)
chain: AQSTTEELAKTFLEKFNHEAEELSYQSSLASWNYNTNITDENVQKMNEAGAKWSAFYEEQSKLAKTYPLAEIHNTTVKRQLQALQQSGSSVLSADKSQRLNTILNAMSTIYSTGKACNPNNPQECLLLEPGLDDIMENSKDYNERLWAWEGWRAEVGKQLRPLYEEYVALKNEMARANNYEDYGDYWRGDYEEEWTDGYNYSRSQLIKDVEHTFTQIKPLYQHLHAYVRAKLMDTYPSRISPTGCLPAHLLGDMWGRFWTNLYPLTVPFGQKPNIDVTDAMVNQSWDARRIFKEAEKFFVSVGLPNMTQGFWENSMLTEPGDSRKVVCHPTAWDLGKGDFRIKMCTKVTMDDFLTAHHEMGHIQYDMAYAVQPFLLRNGANEGFHEAVGEIMSLSAATPNHLKTIGLLSPGFSEDSETEINFLLKQALTIVGTLPFTYMLEKWRWMVFKGEIPKEQWMQKWWEMKREIVGVVEPVPHDETYCDPASLFHVANDYSFIRYYTRTIYQFQFQEALCRIAKHEGPLHKCDISNSSEAGKKLLQMLTLGKSKPWTLALEHVVGEKKMNVTPLLKYFEPLFTWLKEQNRNSFVGWNTDWRPY
Turning to B3, the koff in test [3] came out at 0.0567 s⁻¹.

B4: dimeric P.dav ACE2 ectodomain (residues 17–728, avi-His8) (domain or fragment)
chain: AQSTTEELAKTFLEKFNHEAEELSYQSSLASWNYNTNITDENVQKMNEAGAKWSAFYEEQSKLAKTYPLAEIHNTTVKRQLQALQQSGSSVLSADKSQRLNTILNAMSTIYSTGKACNPNNPQECLLLEPGLDDIMENSKDYNERLWAWEGWRAEVGKQLRPLYEEYVALKNEMARANNYEDYGDYWRGDYEEEWTDGYNYSRSQLIKDVEHTFTQIKPLYQHLHAYVRAKLMDTYPSRISPTGCLPAHLLGDMWGRFWTNLYPLTVPFGQKPNIDVTDAMVNQSWDARRIFKEAEKFFVSVGLPNMTQGFWENSMLTEPGDSRKVVCHPTAWDLGKGDFRIKMCTKVTMDDFLTAHHEMGHIQYDMAYAVQPFLLRNGANEGFHEAVGEIMSLSAATPNHLKTIGLLSPGFSEDSETEINFLLKQALTIVGTLPFTYMLEKWRWMVFKGEIPKEQWMQKWWEMKREIVGVVEPVPHDETYCDPASLFHVANDYSFIRYYTRTIYQFQFQEALCRIAKHEGPLHKCDISNSSEAGKKLLQMLTLGKSKPWTLALEHVVGEKKMNVTPLLKYFEPLFTWLKEQNRNSFVGWNTDWRPYADQSIKVRISLKSALGDEAYEWNDNEMYLFRSSVAYAMREYFSKVKNQTIPFVEDNVWVSNLKPRISFNFFVTASKNVSDVIPRSEVEEAIRMSRSRINDAFRLDDNSLEFLGIQ
Take B4: in test [3], the koff stood at 0.000712 s⁻¹.

B5: dimeric P.nat ACE2 ectodomain (residues 17–729, avi-His8) (domain or fragment)
chain: AQSLTTEEKAREFLDKFNSEAENWSHESALASWDYNTNINDKNAQKMNEADSKWSAFYKEHSKLAQGFPLQEIQNSTIKLQLQILQQNGSSVLTAEKSKRLSTILTTMSTIYSTGKVCNPNNPQQCFTLSGLEDIMEKSKDYHQRLWIWEGWRSEVGKQLRPLYEEYVALKNEMARGNNYKDYGDYWRGDYETEGGDGYNYSRNHLIEDVDRIFLEIKPLYEQLHAYVRAKLMNAYPSRISPTGCLPAHLLGDMWGRFWTNLYNLTVPFEKKQNIDVTDTMKKQSWDAEKIFKEAEKFYLSVGLHNMTPEFWNNSMLTEPSDGRQVVCHPTAWDLGKNDFRIKMCTKVTMDDFLTAHHEMGHIQYDMAYAKQPYLLRNGANEGFHEAVGEVMSLSVATPKHLKGMGLLPSNFSEDCETEINFLLKQALNIVGTLPFTYMLEKWRWMVFEGKIPKEQWMEKWWEMKREIVGVVEPLPHDETYCDPASLFHVANDYSFIRYFTRTILEFQFQEALCQIANHTGPLHKCDISNSTEAGKQLKNMLELGKSKPWTFALEQIARTKEMDAKPLLNYFKPLFSWLKEQNGNSVGWSADWSPYSEQSIKVRISLKSALGEKAYEWNDNEMYLFRSSVAYAMRVYFLKVKNETIPFRAEDVWVSDEKIRVSFKFFVTSPTNVSDIIPRSEVEDAIRMSRGRINDAFRLDDKTLEFLGIQPT
Consider B5, for which the koff in test [4] came out at 0.000301 s⁻¹.
